For two substances, Kd and kon results are on record in PMC6454087.

By Kd is commonly meant a measure of binding affinity in units of concentration. A low value points to a tighter complex. Usually kon stands for the second-order rate constant of association. Low values mean slower complex formation, high ones faster complex formation.

The target in this experiment is mouse rec1c sNASP variant protein (V281I, L282F) (mouse). The experiment is described as follows: BLI; Octet K2, 30 C; sNASP WT or variant immobilised on aminopropylsilane (APS) biosensors, histones in assay buffer at various concentrations (62.5 to 1,000 nM shown for H4), association 240 s; n = 4.

“mouse H3.1/H4 tetramer complex (from UniProt P68433 1-136; P62806 1-103)” returned an equilibrium dissociation constant (Kd) of 14.5 nM and a kon of 37200 M⁻¹ s⁻¹.

With “mouse histone H4 (from UniProt P62806 1-103) (natural protein)”, the Kd was found to be 23.2 nM and the kon was 15900 M⁻¹ s⁻¹.
